The record followed here is paper PMC6926458.

Assay [1] has as its target Concholepas concholepas hemocyanin, native (Concholepas concholepas). Kind of assay: negative-stain transmission electron microscopy; hemocyanins 0.6 mg/ml on parlodion-coated copper grids, 1-2% uranyl acetate; didecamers, decamers and dissociated structures counted in about 20 images.
The target in assay [2] is Fissurella latimarginata hemocyanin, native (Fissurella latimarginata). The assay is described as above.

“Concholepas concholepas hemocyanin, native (complex)”: the stoichiometry N (as a rule, the number of molecules, sites or subunits per partner or assembly) in assay [1] is 20.
Consider “Fissurella latimarginata hemocyanin, native (natural protein)”, for which the stoichiometry N in assay [2] came to 20.
